Data reported in US20080193964A1, “Compositions and methods for regulation of calcium-dependent signaling in brain” (priority 2002, published 2008).

Experiments:
DARPP-21 phosphorylation = details: treatment of mice; cited from earlier work
calmodulin [1] = target: T1, calmodulin (Rattus norvegicus, UniProt P0DP29); experiment: Yeast two-hybrid protein-protein binding assay; details: yeast strain EGY48; FIG. 2
T1 construct: host or cells: yeast strain EGY48
Description: Protein-protein binding assays were performed in a yeast two-hybrid system using the DupLexA system (Origene Technologies, Rockville, Md.) in yeast strain EGY48. To generate a fusion protein of LexA and DARPP-21, DARPP-21 cDNA was subcloned into EcoRI-XhoI sites of pEG202 bait vector. Prey vector contained oligo-dT primed rat brain library (Origene Technologies, Rockville, Md.) attached to the B42 acid blob domain and governed by a gal-1 promoter.
Yeast were sequentially transformed with the bait, pSH18-34 lacZ-harboring prey cDNA library-containing plasmids using the lithium acetate protocol. Efficiency of transformation was estimated to be 10^6 with a library complexity of 4×10^6 individual clones. Positive clones appeared 3 to 7 days after transformation. Bait-prey interaction was assessed by intensity of growth on a (gal)(-his, -trp, -ura, -leu) medium. Specificity of the interaction was verified by X-gal staining and mating assay (Origene Technologies, Rockville, Md.).
To confirm calmodulin-DARPP-21 interactions and compare calmodulin binding to DARPP-21 mutants, EGY48 yeast cells were transformed with the bait, prey and lacZ reporter plasmids and plated onto (glu)(-his, -trp, -ura) plates. Four days later, selected colonies were transferred into a liquid (+raf)(-his, -trp, -ura) medium and grown overnight at 30 C with vigorous shaking. […]

calmodulin [2] = target: T2, calmodulin (Bos taurus, UniProt P62157); experiment: Affinity chromatography using calmodulin-Sepharose; type: binding; details: 0.5 mM CaCl2 buffer versus 1 mM EGTA buffer; FIG. 5
T2 construct: purchased Amersham Pharmacia Biotech
Description: DARPP-21 (0.5 ml of 0.1 mg/ml) was applied to 0.5 ml of 1 mg/ml calmodulin-Sepharose (Amersham Pharmacia Biotech, Piscataway, N.J.) in buffer B (100 mM NaCl, 20 mM Tris pH 7.5, 1 mM MgCl2, 0.5 mM CaCl2, 1 mM DTT) or buffer C containing 1 mM EGTA instead of 0.5 mM CaCl2. Beads were washed with several volumes of buffer D containing 300 mM NaCl and 20 mM Tris pH 7.5 and bound proteins were eluted with 10 mM EGTA/20 mM Tris pH 7.5.

CaMKI = experiment: In vitro inhibition of CaMKI kinase activity; type: biochemical
Description: (§1) For preparations of phosphorylated DARPP-21, the protein was phosphorylated in vitro using [γ-^32P]ATP with the catalytic subunit of PKA as described (Caporaso et al. 2000. Neuropharmacology 39:1636-1643). The stoichiometry of phosphorylation was determined to be 95% for DARPP-21.
(§2) DARPP-21 was phosphorylated as described in Section 6.1. In vitro inhibition studies on the kinase and phosphatase activities of CaMKI and calcineurin, respectively, were performed according to standard techniques in the art.

calcineurin = experiment: In vitro inhibition of calcineurin phosphatase activity; type: biochemical
Description: as §1, §2

[3] = same concentration as phosphorylated DARPP-21

Molecule: CN[C@@H](C)Cc1ccccc1 [methamphetamine]
- DARPP-21 phosphorylation in vivo (DARPP-21 phosphorylation): increased

B1: Ser^55 to alanine in DARPP-21: DARPP-21 mutant with Ala substitution for Ser^55, LexA fusion in yeast (protein, UniProt Q9UBL0 2-812, looked up, variant S55A)
cAMP-regulated phosphoprotein …: SEQGDLNQAIAEEGGTEQETATPENGIVKSESLDEEEKLELQRRLEAQNQERRKAKSGAGKGKLTRSLAVCEESSARPGGESLQDQESIHLQLSSFSSLQEEDKSRKDDSEREKEKDKNKDKTSEKPKIRMLSKDCSQEYTDSTGIDLHEFLINTLKNNSRDRMILLKMEQEIIDFIADNNNHYKKFPQMSSYQRMLVHRVAAYFGLDHNVDQTGKSVIINKTSSTRIPEQRFCEHLKDEKGEESQKRFILKRDNSSIDKEDNQQNRMHPFRDDRRSKSIEEREEEYQRVRERIFAHDSVCSQESLFVENSRLLEDSNICNETYKKRQLFRGNRDGSGRTSGSRQSSSENELKWSDHQRAWSSTDSDSSNRNLKPAMTKTASFGGITVLTRGDSTSSTRSTGKLSKAGSESSSSAGSSGSLSRTHPPLQSTPLVSGVAAGSPGCVPYPENGIGGQVAPSSTSYILLPLEAATGIPPGSILLNPHTGQPFVNPDGTPAIYNPPTSQQPLRSAMVGQSQQQPPQQQPSPQPQQQVQPPQPQMAGPLVTQRDDVATQFGQMTLSRQSSGETPEPPSGPVYPSSLMPQPAQQPSYVIASTGQQLPTGGFSGSGPPISQQVLQPPPSPQGFVQQPPPAQMPVYYYPSGQYPTSTTQQYRPMAPVQYNAQRSQQMPQAAQQAGYQPVLSGQQGFQGLIGVQQPPQSQNVINNQQGTPVQSVMVSYPTMSSYQVPMTQGSQGLPQQSYQQPIMLPNQAGQGSLPATGMPVYCNVTPPTPQNNLRLIGPHCPSSTVPVMSASCRTNCASMSNAGWQVKF
modifications: LexA fusion
notes: DARPP-21 mutant with Ala substitution for Ser^55, LexA fusion in yeast
- interaction with calmodulin in yeast (calmodulin [1]): completely inhibited the interaction with calmodulin

B2: DARPP-21: neuronal 21 kDa dopamine- and cAMP-regulated phosphoprotein (protein, UniProt Q9UBL0 2-812, looked up)
cAMP-regulated phosphoprotein …: SEQGDLNQAIAEEGGTEQETATPENGIVKSESLDEEEKLELQRRLEAQNQERRKSKSGAGKGKLTRSLAVCEESSARPGGESLQDQESIHLQLSSFSSLQEEDKSRKDDSEREKEKDKNKDKTSEKPKIRMLSKDCSQEYTDSTGIDLHEFLINTLKNNSRDRMILLKMEQEIIDFIADNNNHYKKFPQMSSYQRMLVHRVAAYFGLDHNVDQTGKSVIINKTSSTRIPEQRFCEHLKDEKGEESQKRFILKRDNSSIDKEDNQQNRMHPFRDDRRSKSIEEREEEYQRVRERIFAHDSVCSQESLFVENSRLLEDSNICNETYKKRQLFRGNRDGSGRTSGSRQSSSENELKWSDHQRAWSSTDSDSSNRNLKPAMTKTASFGGITVLTRGDSTSSTRSTGKLSKAGSESSSSAGSSGSLSRTHPPLQSTPLVSGVAAGSPGCVPYPENGIGGQVAPSSTSYILLPLEAATGIPPGSILLNPHTGQPFVNPDGTPAIYNPPTSQQPLRSAMVGQSQQQPPQQQPSPQPQQQVQPPQPQMAGPLVTQRDDVATQFGQMTLSRQSSGETPEPPSGPVYPSSLMPQPAQQPSYVIASTGQQLPTGGFSGSGPPISQQVLQPPPSPQGFVQQPPPAQMPVYYYPSGQYPTSTTQQYRPMAPVQYNAQRSQQMPQAAQQAGYQPVLSGQQGFQGLIGVQQPPQSQNVINNQQGTPVQSVMVSYPTMSSYQVPMTQGSQGLPQQSYQQPIMLPNQAGQGSLPATGMPVYCNVTPPTPQNNLRLIGPHCPSSTVPVMSASCRTNCASMSNAGWQVKF
- binding to calmodulin-Sepharose (calmodulin [2]): detected only in the calcium-equilibrated column

B3: Phosphorylated DARPP-21: DARPP-21 phosphorylated in vitro with the catalytic subunit of PKA (protein, UniProt Q9UBL0 2-812, looked up)
cAMP-regulated phosphoprotein …: SEQGDLNQAIAEEGGTEQETATPENGIVKSESLDEEEKLELQRRLEAQNQERRKSKSGAGKGKLTRSLAVCEESSARPGGESLQDQESIHLQLSSFSSLQEEDKSRKDDSEREKEKDKNKDKTSEKPKIRMLSKDCSQEYTDSTGIDLHEFLINTLKNNSRDRMILLKMEQEIIDFIADNNNHYKKFPQMSSYQRMLVHRVAAYFGLDHNVDQTGKSVIINKTSSTRIPEQRFCEHLKDEKGEESQKRFILKRDNSSIDKEDNQQNRMHPFRDDRRSKSIEEREEEYQRVRERIFAHDSVCSQESLFVENSRLLEDSNICNETYKKRQLFRGNRDGSGRTSGSRQSSSENELKWSDHQRAWSSTDSDSSNRNLKPAMTKTASFGGITVLTRGDSTSSTRSTGKLSKAGSESSSSAGSSGSLSRTHPPLQSTPLVSGVAAGSPGCVPYPENGIGGQVAPSSTSYILLPLEAATGIPPGSILLNPHTGQPFVNPDGTPAIYNPPTSQQPLRSAMVGQSQQQPPQQQPSPQPQQQVQPPQPQMAGPLVTQRDDVATQFGQMTLSRQSSGETPEPPSGPVYPSSLMPQPAQQPSYVIASTGQQLPTGGFSGSGPPISQQVLQPPPSPQGFVQQPPPAQMPVYYYPSGQYPTSTTQQYRPMAPVQYNAQRSQQMPQAAQQAGYQPVLSGQQGFQGLIGVQQPPQSQNVINNQQGTPVQSVMVSYPTMSSYQVPMTQGSQGLPQQSYQQPIMLPNQAGQGSLPATGMPVYCNVTPPTPQNNLRLIGPHCPSSTVPVMSASCRTNCASMSNAGWQVKF
modifications: phospho-Ser55
notes: DARPP-21 phosphorylated in vitro with the catalytic subunit of PKA
- IC50 (CaMKI; in vitro, FIG. 6): 1200 nM
- IC50 (calcineurin; in vitro, FIG. 7): 1000 nM

B4: unphosphorylated DARPP-21: neuronal 21 kDa dopamine- and cAMP-regulated phosphoprotein, not phosphorylated (protein, UniProt Q9UBL0 2-812, looked up)
cAMP-regulated phosphoprotein …: SEQGDLNQAIAEEGGTEQETATPENGIVKSESLDEEEKLELQRRLEAQNQERRKSKSGAGKGKLTRSLAVCEESSARPGGESLQDQESIHLQLSSFSSLQEEDKSRKDDSEREKEKDKNKDKTSEKPKIRMLSKDCSQEYTDSTGIDLHEFLINTLKNNSRDRMILLKMEQEIIDFIADNNNHYKKFPQMSSYQRMLVHRVAAYFGLDHNVDQTGKSVIINKTSSTRIPEQRFCEHLKDEKGEESQKRFILKRDNSSIDKEDNQQNRMHPFRDDRRSKSIEEREEEYQRVRERIFAHDSVCSQESLFVENSRLLEDSNICNETYKKRQLFRGNRDGSGRTSGSRQSSSENELKWSDHQRAWSSTDSDSSNRNLKPAMTKTASFGGITVLTRGDSTSSTRSTGKLSKAGSESSSSAGSSGSLSRTHPPLQSTPLVSGVAAGSPGCVPYPENGIGGQVAPSSTSYILLPLEAATGIPPGSILLNPHTGQPFVNPDGTPAIYNPPTSQQPLRSAMVGQSQQQPPQQQPSPQPQQQVQPPQPQMAGPLVTQRDDVATQFGQMTLSRQSSGETPEPPSGPVYPSSLMPQPAQQPSYVIASTGQQLPTGGFSGSGPPISQQVLQPPPSPQGFVQQPPPAQMPVYYYPSGQYPTSTTQQYRPMAPVQYNAQRSQQMPQAAQQAGYQPVLSGQQGFQGLIGVQQPPQSQNVINNQQGTPVQSVMVSYPTMSSYQVPMTQGSQGLPQQSYQQPIMLPNQAGQGSLPATGMPVYCNVTPPTPQNNLRLIGPHCPSSTVPVMSASCRTNCASMSNAGWQVKF
- effect on CaMKI activity (CaMKI; [3]): no effect
- effect on calcineurin activity (calcineurin; [3]): no effect
